The target in the assay is human IgE with the M1′ sequence (long form of membrane IgE) expressed on transduced BJAB or Daudi cells (human), P01854. In words: cell-based or functional assay.

The source of these data is patent US20120149881A1.

Sequence of human IgE with the M1′ sequence (long form of membrane IgE) expressed on transduced BJAB or Daudi cells (human), P01854 (P01854 116-546 I515L limits assumed): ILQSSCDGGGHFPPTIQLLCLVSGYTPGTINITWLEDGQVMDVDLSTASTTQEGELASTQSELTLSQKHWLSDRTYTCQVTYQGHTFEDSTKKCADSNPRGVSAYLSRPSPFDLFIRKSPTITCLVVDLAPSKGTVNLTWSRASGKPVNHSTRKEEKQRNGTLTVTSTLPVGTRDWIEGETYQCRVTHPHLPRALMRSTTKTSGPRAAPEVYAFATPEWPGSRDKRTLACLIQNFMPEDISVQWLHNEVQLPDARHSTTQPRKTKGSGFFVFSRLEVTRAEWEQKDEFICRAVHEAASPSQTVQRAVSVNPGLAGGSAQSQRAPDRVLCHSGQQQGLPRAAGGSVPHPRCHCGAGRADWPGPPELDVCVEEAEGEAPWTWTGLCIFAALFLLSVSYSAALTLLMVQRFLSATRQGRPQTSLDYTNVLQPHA

B1: murine anti-IgE/M1′ antibody 7A6 (antibody)
heavy: QVQLQQSGAELVRPGASVTLSCKASGYTFIDYEMHWVKQTPVHGLEWIGAIDPETGTTAYNQKFKGKATLTAAKSSSTAYMELRSLTSEDSAVYYCTRLRPHYDYDNAMDSWGQGTTLTVSSASTKGPSVYPLAPGSAAQTNSMVTLGCLVKGYFPEPVTVTWNSGSLSSGVHTFPAVLQSDLYTLSSSVTVPSSTWPSETVTCNVAHPASSTKVDKKIVPRDCGCKPCICTVPEVSSVFIFPPKPKDVLTITLTPKVTCVVVDISKDDPEVQFSWFVDDVEVHTAQTQPREEQFNSTFRSVSELPIMHQDWLNGKEFKCRVNSAAFPAPIEKTISKTKGRPKAPQVYTIPPPKEQMAKDKVSLTCMITDFFPEDITVEWQWNGQPAENYKNTQPIMDTDGSYFVYSKLNVQKSNWEAGNTFTCSVLHEGLHNHHTEKSLSHSPGK
light: DIVMSQSPSSLTVSVGEKVTLSCKSSQTLLYSTNQKNYLAWYQQKPGQSPKLLIYWASTRESGVPDRFTGSGSGTDFTLTISSVKAEDLAVYYCQQYYSYPYTFGGGTKVEIKRADAAPTVSIFPPSSEQLTSGGASVVCFLNNFYPKDINVKWKIDGSERQNGVLNSWTDQDSKDSTYSMSSTLTLTKDEYERHNSYTCEATHKTSTSPIVKSFNRNEC
As to B1, the apoptosis of Daudi-IgE/Long cells (Annexin V/PI, 72 h), no crosslinker; concentration at which seen is greater than 10 µg/mL.

B2: murine anti-IgE/M1′ antibody 26A11 (antibody)
heavy: EVQLQQSGPELVKPGASVKMSCKASGYTFTDYYMMWVKQSHGKSLEWIGDINPNNYDTSYNQKFKGKATLTVDKSSSTAYIQLNSLTSEDSAVYYCASKAYWGQGTLVTVSAASTTPPSVYPLAPGSAAQTNSMVTLGCLVKGYFPEPVTVTWNSGSLSSGVHTFPAVLQSDLYTLSSSVTVPSSTWPSETVTCNVAHPASSTKVDKKIVPRDCGCKPCICTVPEVSSVFIFPPKPKDVLTITLTPKVTCVVVDISKDDPEVQFSWFVDDVEVHTAQTQPREEQFNSTFRSVSELPIMHQDWLNGKEFKCRVNSAAFPAPIEKTISKTKGRPKAPQVYTIPPPKEQMAKDKVSLTCMITDFFPEDITVEWQWNGQPAENYKNTQPIMDTDGSYFVYSKLNVQKSNWEAGNTFTCSVLHEGLHNHHTEKSLSHSPGK
light: DIQMTQTTSSLSASLGDRVTITCRSSQDISNSLNWYQQKPDGPVKLLIYSTSRLHSGVPSRFSGSGSGTDYSLTISNLEQEDLATYFCQQGHTLPWTFGGGTKVEIKRADAAPTVSIFPPSSEQLTSGGASVVCFLNNFYPKDINVKWKIDGSERQNGVLNSWTDQDSKDSTYSMSSTLTLTKDEYERHNSYTCEATHKTSTSPIVKSFNRNEC
Regarding B2, the apoptosis of Daudi-IgE/Long cells, no crosslinker; concentration at which seen is greater than 0.1 µg/mL and the percent apoptosis of Daudi-IgE/Long cells, no crosslinker is 30 to 50%.

B3: murine anti-IgE/M1′ antibody 47H4 (antibody)
heavy: EVKLVESGGGLVQPGGSRKLSCAASGFTFSDYGMAWVRQAPGKGPEWVAFISDLAYTIYYADTVTGRFTISRENAKNTLYLEMSSLRSEDTALYYCARDNWDAMDYWGQGTSVTVSSAKTTPPSSVYPLAPGSAAQTNSMVTLGCLVKGYFPEPVTVTWNSGSLSSGVHTFPAVLQSDLYTLSSSVTVPSSTWPSETVTCNVAHPASSTKVDKKIVPRDCGCKPCICTVPEVSSVFIFPPKPKDVLTITLTPKVTCVVVDISKDDPEVQFSWFVDDVEVHTAQTQPREEQFNSTFRSVSELPIMHQDWLNGKEFKCRVNSAAFPAPIEKTISKTKGRPKAPQVYTIPPPKEQMAKDKVSLTCMITDFFPEDITVEWQWNGQPAENYKNTQPIMDTDGSYFVYSKLNVQKSNWEAGNTFTCSVLHEGLHNHHTEKSLSHSPGK
light: DIVLTQTPLSLPVSLGDQASISCRSSQSLVHNNGNTYLHWYLQKPGQSPKLLIYKVSNRFSGVPDRFSGSGSGTDFTLKISRLEAEDLGVYFCSQNTLVPWTFGGGTKVEIKRADAAPTVSIFPPSSEQLTSGGASVVCFLNNFYPKDINVKWKIDGSERQNGVLNSWTDQDSKDSTYSMSSTLTLTKDEYERHNSYTCEATHKTSTSPIVKSFNRNEC
B3 returned an apoptosis of Daudi-IgE/Long cells (Annexin V/PI, 72 h), no crosslinker; concentration at which seen greater than 10 µg/mL.

B4: afucosylated humanized anti-IgE/M1′ antibody 47H4 v5 (antibody, V domains shown)
VH: EVQLVESGGGLVQPGGSLRLSCAASGFTFSDYGIAWVRQAPGKGLEWVAFISDLAYTIYYADTVTGRFTISRDNSKNTLYLQMNSLRAEDTAVYYCARDNWDAMDYWGQGTLVTVSS
VL: DIQMTQSPSSLSASVGDRVTITCRSSQSLVHNNANTYLHWYQQKPGKAPKLLIYKVSNRFSGVPSRFSGSGSGTDFTLTISSLQPEDFATYYCSQNTLVPWTFGQGTKVEIKR
modifications: here or on the partner: afucosylated Fc carbohydrate (produced in BIOWA cell lines)
B4 showed an EC50 of ADCC: NK-cell lysis of BJAB cells overexpressing human IgE/M1′ (LDH release) of 0.83 nM.

B5: humanized anti-IgE/M1′ antibody 47H4.v5 (antibody, V domains shown)
VH: EVQLVESGGGLVQPGGSLRLSCAASGFTFSDYGIAWVRQAPGKGLEWVAFISDLAYTIYYADTVTGRFTISRDNSKNTLYLQMNSLRAEDTAVYYCARDNWDAMDYWGQGTLVTVSS
VL: DIQMTQSPSSLSASVGDRVTITCRSSQSLVHNNANTYLHWYQQKPGKAPKLLIYKVSNRFSGVPSRFSGSGSGTDFTLTISSLQPEDFATYYCSQNTLVPWTFGQGTKVEIKR
The molecule B5 gave an EC50 of ADCC: NK-cell lysis of BJAB cells overexpressing human IgE/M1′ (LDH release) of 6.6 nM.
